This note sets out measurements from US20210388097A1 (SORRENTO THERAPEUTICS, published 2021).

First the molecules themselves.
B3: Mutant-2 human BCMA protein-mouse Fc (Fc fusion)
chain: MLQMAGQCSQNEYFDSLLHACIPCQLRCSSNPPGTCQRYCNASVTNSVKGTNAGLGGLVDYKDDDDKTHTCPPCKCPAPNLLGGPSVFIFPPKIKDVLMISLSPIVTCVVVDVSEDDPDVQISWFVNNVEVHTAQTQTHREDYNSTLRVVSALPIQHQDWMSGKEFKCKVNNKDLPAPIERTISKPKGSVRAPQVYVLPPPEEEMTKKQVTLTCMVTDFMPEDIYVEWTNNGKTELNYKNTEPVLDSDGSYFMYSKLRVEKKNWVERNSYSCSVVHEGLHNHHTTKSFSRTPGK
notes: also called mutant-2 human BCMA-mouse Fc (del32-35G); mutant-2 BCMA protein

Test [1] concerns the target T1, Wild type human BCMA protein-mouse Fc (human).
T1 construct: also called wild type human BCMA-mouse Fc; wild type BCMA protein
T1 chain: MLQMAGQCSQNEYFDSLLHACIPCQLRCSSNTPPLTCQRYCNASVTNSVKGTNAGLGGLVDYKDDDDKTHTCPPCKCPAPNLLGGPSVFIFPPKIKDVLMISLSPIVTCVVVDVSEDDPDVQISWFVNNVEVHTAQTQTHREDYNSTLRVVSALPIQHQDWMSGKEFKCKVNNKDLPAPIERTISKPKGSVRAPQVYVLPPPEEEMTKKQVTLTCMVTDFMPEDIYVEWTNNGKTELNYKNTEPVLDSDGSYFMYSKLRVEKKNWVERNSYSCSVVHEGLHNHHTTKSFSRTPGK
Description: bio-layer interferometry, antibody (100 nM) loaded on AR2G sensor, BCMA-mouse Fc in solution. On the procedure: (§1) The results of the protein-protein binding assays described in Example 8 were used to design an epitope mapping assay using bio-layer interferometry. Various anti-BCMA antibodies (2C5, 2E1, 4C9, 6G8, Bluebird C11D5, GSK J6M0, or isotype control) (100 nM) were loaded onto AR2G sensors and reacted with buffer or one of three types of human BCMA proteins including: including: wild type human BCMA-mouse Fc (SEQ ID NO:5), mutant-1 human BCMA-mouse Fc (double mutation 17G-18G; SEQ ID NO:6), or mutant-2 human BCMA-mouse Fc (mutation del32-35G; SEQ ID NO:7).
(In general: BLI is a label-free optical method that tracks binding on a fibre tip over time.)

Test [2] concerns the target T2, Mutant-1 human BCMA protein-mouse Fc (human).
T2 construct: also called mutant-1 human BCMA-mouse Fc (17G-18G); mutant-1 BCMA protein
T2 chain: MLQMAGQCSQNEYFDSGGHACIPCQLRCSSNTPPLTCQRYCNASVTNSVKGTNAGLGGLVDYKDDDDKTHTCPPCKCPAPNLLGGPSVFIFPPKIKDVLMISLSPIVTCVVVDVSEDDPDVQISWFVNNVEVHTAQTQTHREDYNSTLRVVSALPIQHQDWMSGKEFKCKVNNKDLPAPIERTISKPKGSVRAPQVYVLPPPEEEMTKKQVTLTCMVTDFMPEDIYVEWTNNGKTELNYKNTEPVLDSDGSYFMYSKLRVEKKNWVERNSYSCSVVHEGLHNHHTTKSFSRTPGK
The description is as above. On the procedure:
as §1

Test [3] deals with T3, his-tagged human BCMA protein (ACROBiosystems, catalog # BCA-H522y-100 ug) (human, UniProt Q02223 1-54).
T3 construct: limits of the bought construct are not otherwise stated; also called recombinant his-tagged human BCMA; not shown: his tag of the bought protein
T3 sequence: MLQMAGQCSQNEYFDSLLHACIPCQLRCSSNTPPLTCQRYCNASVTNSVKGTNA
Kind of test: SPR (Biacore T200, 25 C), antibody captured on anti-human Fc, his-tagged human BCMA as analyte, 1:1 binding model. On the procedure:
Binding kinetics of anti-BCMA antibodies with his-tagged human BCMA protein (ACROBiosystems, catalog # BCA-H522y-100 ug, UniProt Q02223-1, SEQ ID NO:92) was measured using surface plasmon resonance (SPR). Kinetic interactions between the antibodies and his-tagged BCMA proteins were measured at 25° C. using Biacore T200 surface plasmon resonance (GE Healthcare). Anti-human fragment crystallizable region (Fc region) antibody was immobilized on a CM5 sensor chip to approximately 8000 resonance units (RU) using standard N-hydroxysuccinimide/N-Ethyl-N′-(3-dimethylaminopropyl) carbodiimide hydrochloride (NHS/EDC) coupling methodology. The anti-BCMA antibody (2 μg/mL) was captured for 60 seconds at a flow rate of 10 μL/minute. The his-tagged BCMA protein was run at six different dilutions of 3.12, 6.25, 12.5, 25, 50, 100 and 200 nM, in a running buffer of 0.01 M HEPES pH 7.4, 0.15 M NaCl, 3 mM EDTA, 0.05% v/v Surfactant P20 (HBS-EP+). The 25 nM BCMA protein run was measured two times. All measurements were conducted in HBS-EP+ buffer with a flow rate of 30 μL/minute. A 1:1 (Langmuir) binding model was used to fit the data. The SPR sensorgrams of anti-BCMA antibodies BCA7, GSK J6M0, BC4C9 and BC5C4 are shown in FIGS. 1, 2, 3 and 4, respectively, and their corresponding binding kinetics are listed in Table 3.

The target of test [4] is T4, his-tagged mouse BCMA protein (ACROBiosystems, catalog # BCA-M52H3) (mouse, UniProt O88472 1-49).
T4 construct: Bought protein; not shown: his tag
T4 chain (looked up): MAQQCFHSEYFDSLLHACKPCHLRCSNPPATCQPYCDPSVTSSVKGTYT
Description: ELISA, his-tagged BCMA on Ni-NTA plate at 2 µg/mL, anti-human Fc HRP. The procedure:
Cross-reactivity of the anti-BCMA antibodies with his-tagged BCMA protein from human, cynomolgus or mouse, were analyzed by ELISA assay. The Ni-NTA plate was coated with his-tagged BCMA proteins (listed in Example 2 above) at 2 μg/mL, then reacted with an anti-BCMA antibody at 20 μg/mL, and reacted with anti-human Fc HRP (KPL Scientific, catalog #5220-0279) at 1:2500 dilution. […] Each set includes 5 test antigens or buffer, from left to right: negative control antigen, his-tagged mouse BCMA protein, his-tagged cynomolgus BCMA protein, his-tagged human BCMA protein, and Dulbecco's Phosphate-Buffered Saline.
Background: ELISA stands for enzyme-linked immunosorbent assay.

Test [5] deals with B3. Kind of test: bio-layer interferometry, antibody (100 nM) loaded on AR2G sensor, BCMA-mouse Fc in solution. The procedure: as §1
Test [6] deals with T5, BCMA on MM1R cells (human, UniProt Q02223).
T5 construct: full length, on the surface of MM1R multiple myeloma cells; also called MM1R multiple myeloma cell line
T5 sequence (receptor, looked up): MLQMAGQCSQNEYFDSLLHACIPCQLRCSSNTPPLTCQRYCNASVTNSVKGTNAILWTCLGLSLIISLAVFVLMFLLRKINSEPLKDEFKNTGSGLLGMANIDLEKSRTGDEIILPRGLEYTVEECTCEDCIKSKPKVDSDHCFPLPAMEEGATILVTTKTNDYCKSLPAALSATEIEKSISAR
Kind of test: flow cytometry on MM1R cells, 5x serial dilution, FITC goat anti-human IgG F(ab')2, GeoMean BL1-H. The source says: Flow cytometry was used to test antibody binding to multiple myeloma cell line MM1R, using various anti-BCMA antibodies (5× serial dilution) and 80,000 cells per well. The secondary antibody was FITC AffiniPure FAB2 fragment goat anti-human IgG (H+L) (from Jackson Immuno Research). […] A BL-1 detector (IntelliCyt iQue Screener Plus) which detects at 530 nm was used. The geometric mean is reported.

For test [7], the target named is T6, human TACI/TNFRSF13B (CD267) His-tag, from Sino Biological (human, UniProt O14836 1-166, limits assumed).
T6 construct: Bought protein; not shown: His-tag
T6 sequence (looked up): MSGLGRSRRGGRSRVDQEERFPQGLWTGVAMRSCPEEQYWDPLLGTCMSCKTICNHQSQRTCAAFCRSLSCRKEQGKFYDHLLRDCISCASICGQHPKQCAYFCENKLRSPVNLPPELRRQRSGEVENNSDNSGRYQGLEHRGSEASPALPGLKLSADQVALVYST
Kind of test: bio-layer interferometry, antibody coupled to AR2G sensor, TACI in solution. The procedure: (§2) Bio-layer interferometry was used to measure cross-binding between (1) two different anti-BCMA antibodies (BCA7-2C5 or BB C11D5) or a control isotype, and (2) various human antigens including TACI and BAFFR.
(§3) Immobilization of antibody was achieved through standard EDC-catalyzed amide bond formation to create a covalent bond between a reactive amine on the protein and the carboxy-terminated biosensor surface. Briefly, AR2G sensors (OctetRED96e from ForteBio) were activated by EDC-NHS for 6 minutes, then 5 ug/ml antibodies were loaded (BCA7-2C5 antibody, Bluebird C11D5 chimeric antibody, or a human IgG isotype antibody) in 10 mM acetate buffer pH 5.0 for 6 minutes, followed by quenching for 6 minutes with 1M ethanolamine pH 8.5. The 3 minutes baseline step removed any unbound antibody from the biosensor, followed by 1.5 minutes each for association of three analyte proteins TACI (human TACI/TNFRSF13B (CD267) His-tag, from Sino Biological, 1 ug/mL in PBS), BAFFR (human BAFFR/TNFRSF13C (CD268) Fc tag) from Sino Biological, 2 ug/mL in PBS), and human BCMA protein (in-house made with mouse Fc, 2 ug/mL in PBS).

The target of test [8] is T3, his-tagged human BCMA protein …. Kind of test: ELISA, his-tagged BCMA on Ni-NTA plate at 2 µg/mL, antibody at 20 µg/mL.
In test [9] the target is T7, human BAFFR/TNFRSF13C (CD268) Fc tag, from Sino Biological (human, UniProt Q96RJ3 1-71, limits assumed).
T7 construct: Bought protein; not shown: Fc tag
T7 sequence (looked up): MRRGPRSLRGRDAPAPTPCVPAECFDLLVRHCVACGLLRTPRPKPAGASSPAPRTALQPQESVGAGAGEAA
Description: bio-layer interferometry, antibody coupled to AR2G sensor, BAFFR in solution. The procedure:
as §2, §3

Test [10] concerns the target T8, human APRIL protein (R&D Systems, catalog #5860-AP-010/CF) (human, UniProt O75888 105-250, limits assumed).
T8 construct: Bought protein; also called human APRIL protein from R&D Systems; TNF13
T8 sequence (looked up): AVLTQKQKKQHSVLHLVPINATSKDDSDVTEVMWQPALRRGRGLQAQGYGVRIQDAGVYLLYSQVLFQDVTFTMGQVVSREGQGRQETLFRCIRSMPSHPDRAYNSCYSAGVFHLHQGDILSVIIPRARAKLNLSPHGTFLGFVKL
Description: bio-layer interferometry, APRIL on AR2G sensor, BCMA-mouse Fc at 2.5 µg/mL. On the procedure: Bio-layer interferometry was also used to measure binding between APRIL protein, and wild type or mutant BCMA proteins. Human APRIL protein (R&D Systems, catalog #5860-AP-010/CF) was loaded onto an Ar2G sensor (OctetRET96e) and reacted with 2.5 μg/mL of one of three types of human BCMA proteins including: wild type human BCMA-mouse Fc (SEQ ID NO:5), mutant-1 human BCMA-mouse Fc (17G-18G; SEQ ID NO:6), or mutant-2 human BCMA-mouse Fc (de132-35G; SEQ ID NO:7).

B1: GSK J6M0 antibody (GSK anti-BCMA Ab) (antibody, V domains shown)
VH: QVQLVQSGAEVKKPGSSVKVSCKASGGTFSNYWMHWVRQAPGQGLEWMGATYRGHSDTYYNQKFKGRVTITADKSTSTAYMELSSLRSEDTAVYYCARGAIYDGYDVLDNWGQGTLVTVSS
VL: DIQMTQSPSSLSASVGDRVTITCSASQDISNYLNWYQQKPGKAPKLLIYYTSNLHSGVPSRFSGSGSGTDFTLTISSLQPEDFATYYCQQYRKLPWTFGQGTKLEIK
notes: Comparator anti-BCMA antibody; captured by anti-human Fc in SPR, so it carries a human Fc; also called GSK antibody
For the molecule B1, the binding result in test [1] is listed as “binds”. In addition, in test [2], the binding result is on record as “binds”. In [3], the affinity, expressed as Kd, was 2.52 nM; the koff (as a rule, a measure of how fast the partners let go of each other) was determined as 0.000496 s⁻¹; the on-rate (kon) (as a rule, the second-order rate constant of association) was 197000 M⁻¹ s⁻¹. Further, the binding result in test [4] was “no binding (tested: 20 µg/mL)”.

B2: Bluebird C11D5 antibody (BB anti-BCMA Ab) (antibody, V domains shown)
VH: QIQLVQSGPELKKPGETVKISCKASGYTFTDYSINWVKRAPGKGLKWMGWINTETREPAYAYDFRGRFAFSLETSASTAYLQINNLKYEDTATYFCALDYSYAMDYWGQGTTLTVSS
VL: DIVLTQSPASLAMSLGKRATISCRASESVSVIGAHLIHWYQQKPGQPPKLLIYLASNLETGVPARFSGSGSGTDFTLTIDPVEEDDVAIYSCLQSRIFPRTFGGGTKLEIK
notes: Comparator anti-BCMA antibody; also called BB C11D5; Bluebird antibody
As to B2, the binding result in test [1] is recorded as “binds”; in test [5], “binds”; in test [2], “binds”; in [6] it was “binds”; in test [7] it was “no binding (tested: 1 ug/mL)”; in test [8], “binds”. In addition, the binding result in [9] is recorded as “no binding (tested: 2 ug/mL)”; in [4], “no binding (tested: 20 µg/mL)”.

Regarding B3, in test [10], the binding result is on record as “binds”.
